Experimental data: paper PMC7585439, “UvrD helicase–RNA polymerase interactions are governed by UvrD’s carboxy-terminal Tudor domain” (Communications Biology, 2020)

T1: UvrD-CTD (Escherichia coli, UniProt P03018 645-720)
T1 sequence: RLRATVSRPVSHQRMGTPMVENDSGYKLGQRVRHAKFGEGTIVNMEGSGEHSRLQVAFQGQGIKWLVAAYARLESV

B1: UvrD-ΔCTD (1-664) (domain or fragment, E. coli, UniProt P03018 1-664, looked up)
chain: MDVSYLLDSLNDKQREAVAAPRSNLLVLAGAGSGKTRVLVHRIAWLMSVENCSPYSIMAVTFTNKAAAEMRHRIGQLMGTSQGGMWVGTFHGLAHRLLRAHHMDANLPQDFQILDSEDQLRLLKRLIKAMNLDEKQWPPRQAMWYINSQKDEGLRPHHIQSYGNPVEQTWQKVYQAYQEACDRAGLVDFAELLLRAHELWLNKPHILQHYRERFTNILVDEFQDTNNIQYAWIRLLAGDTGKVMIVGDDDQSIYGWRGAQVENIQRFLNDFPGAETIRLEQNYRSTSNILSAANALIENNNGRLGKKLWTDGADGEPISLYCAFNELDEARFVVNRIKTWQDNGGALAECAILYRSNAQSRVLEEALLQASMPYRIYGGMRFFERQEIKDALSYLRLIANRNDDAAFERVVNTPTRGIGDRTLDVVRQTSRDRQLTLWQACRELLQEKALAGRAASALQRFMELIDALAQETADMPLHVQTDRVIKDSGLRTMYEQEKGEKGQTRIENLEELVTATRQFSYNEEDEDLMPLQAFLSHAALEAGEGQADTWQDAVQLMTLHSAKGLEFPQVFIVGMEEGMFPSQMSLDEGGRLEEERRLAYVGVTRAMQKLTLTYAETRRLYGKEVYHRPSRFIGELPEECVEEVRLRATVSRPVSHQRMGTPMV
notes: UvrD helicase (Helicase II), E. coli, residues 1-664; made by inserting a stop codon; Probably the His6 full-length construct; also called truncated UvrD lacking the CTD; source: E. coli BL21(λDE3) pLysS, purified (Ni-NTA, SEC)
B2: Mfd RNAP Interaction Domain (Mfd-RID, residues 472-547; Domain 4) (domain or fragment, E. coli, UniProt P30958 472-547, looked up)
chain: RNLAELHIGQPVVHLEHGVGRYAGMTTLEAGGITGEYLMLTYANDAKLYVPVSSLHLISRYAGGAEENAPLHKLGG
notes: Mfd (Transcription-Repair Coupling Factor, TRCF), E. coli, residues 472-547, comprising Domain 4; Used [U-15N] labelled in the NMR experiments; source: E. coli BL21 Star (λDE3), purified (Ni-NTA, SenP1 cleavage, second Ni-NTA, SEC); not shown: His6, N-terminal, cleaved; Sumo, N-terminal, cleaved
B3: biotinylated 17mer ssDNA (ssDNA)
DNA: GCAGTGCTCGTTTTTTT
modifications: biotin (position not given)
B4: 17mer ssDNA (ssDNA)
DNA: GCAGTGCTCGTTTTTTT
B5: UvrD helicase, full-length (1-720) (enzyme, E. coli, UniProt P03018 1-720, looked up)
chain: MDVSYLLDSLNDKQREAVAAPRSNLLVLAGAGSGKTRVLVHRIAWLMSVENCSPYSIMAVTFTNKAAAEMRHRIGQLMGTSQGGMWVGTFHGLAHRLLRAHHMDANLPQDFQILDSEDQLRLLKRLIKAMNLDEKQWPPRQAMWYINSQKDEGLRPHHIQSYGNPVEQTWQKVYQAYQEACDRAGLVDFAELLLRAHELWLNKPHILQHYRERFTNILVDEFQDTNNIQYAWIRLLAGDTGKVMIVGDDDQSIYGWRGAQVENIQRFLNDFPGAETIRLEQNYRSTSNILSAANALIENNNGRLGKKLWTDGADGEPISLYCAFNELDEARFVVNRIKTWQDNGGALAECAILYRSNAQSRVLEEALLQASMPYRIYGGMRFFERQEIKDALSYLRLIANRNDDAAFERVVNTPTRGIGDRTLDVVRQTSRDRQLTLWQACRELLQEKALAGRAASALQRFMELIDALAQETADMPLHVQTDRVIKDSGLRTMYEQEKGEKGQTRIENLEELVTATRQFSYNEEDEDLMPLQAFLSHAALEAGEGQADTWQDAVQLMTLHSAKGLEFPQVFIVGMEEGMFPSQMSLDEGGRLEEERRLAYVGVTRAMQKLTLTYAETRRLYGKEVYHRPSRFIGELPEECVEEVRLRATVSRPVSHQRMGTPMVENDSGYKLGQRVRHAKFGEGTIVNMEGSGEHSRLQVAFQGQGIKWLVAAYARLESV
notes: UvrD helicase (Helicase II), E. coli, full-length, residues 1-720; The His6 tag is called uncleavable; Used [U-2H,15N] labelled in the NMR experiments; also called UvrD-FL; UvrD full-length; source: E. coli BL21(λDE3) pLysS, purified (Ni-NTA, SEC); not shown: His6, N-terminal, kept
B6: Mfd full-length (1-1148) (enzyme, E. coli, UniProt P30958 1-1148, looked up)
chain: MPEQYRYTLPVKAGEQRLLGELTGAACATLVAEIAERHAGPVVLIAPDMQNALRLHDEISQFTDQMVMNLADWETLPYDSFSPHQDIISSRLSTLYQLPTMQRGVLIVPVNTLMQRVCPHSFLHGHALVMKKGQRLSRDALRTQLDSAGYRHVDQVMEHGEYATRGALLDLFPMGSELPYRLDFFDDEIDSLRVFDVDSQRTLEEVEAINLLPAHEFPTDKAAIELFRSQWRDTFEVKRDPEHIYQQVSKGTLPAGIEYWQPLFFSEPLPPLFSYFPANTLLVNTGDLETSAERFQADTLARFENRGVDPMRPLLPPQSLWLRVDELFSELKNWPRVQLKTEHLPTKAANANLGFQKLPDLAVQAQQKAPLDALRKFLETFDGPVVFSVESEGRREALGELLARIKIAPQRIMRLDEASDRGRYLMIGAAEHGFVDTVRNLALICESDLLGERVARRRQDSRRTINPDTLIRNLAELHIGQPVVHLEHGVGRYAGMTTLEAGGITGEYLMLTYANDAKLYVPVSSLHLISRYAGGAEENAPLHKLGGDAWSRARQKAAEKVRDVAAELLDIYAQRAAKEGFAFKHDREQYQLFCDSFPFETTPDQAQAINAVLSDMCQPLAMDRLVCGDVGFGKTEVAMRAAFLAVDNHKQVAVLVPTTLLAQQHYDNFRDRFANWPVRIEMISRFRSAKEQTQILAEVAEGKIDILIGTHKLLQSDVKFKDLGLLIVDEEHRFGVRHKERIKAMRANVDILTLTATPIPRTLNMAMSGMRDLSIIATPPARRLAVKTFVREYDSMVVREAILREILRGGQVYYLYNDVENIQKAAERLAELVPEARIAIGHGQMRERELERVMNDFHHQRFNVLVCTTIIETGIDIPTANTIIIERADHFGLAQLHQLRGRVGRSHHQAYAWLLTPHPKAMTTDAQKRLEAIASLEDLGAGFALATHDLEIRGAGELLGEEQSGSMETIGFSLYMELLENAVDALKAGREPSLEDLTSQQTEVELRMPSLLPDDFIPDVNTRLSFYKRIASAKTENELEEIKVELIDRFGLLPDPARTLLDIARLRQQAQKLGIRKLEGNEKGGVIEFAEKNHVNPAWLIGLLQKQPQHYRLDGPTRLKFIQDLSERKTRIEWVRQFMRELEENAIA
notes: Mfd (Transcription-Repair Coupling Factor, TRCF), E. coli, full-length, residues 1-1148; Construct bought from Genscript; Used [U-2H,15N] labelled in the NMR experiments; also called Transcription-Repair Coupling Factor; TRCF; source: E. coli BL21 Star (λDE3), purified (Ni-NTA, SEC)
B7: UvrD carboxy-terminal region (UvrD-CTD, residues 645-720) (domain or fragment, E. coli, UniProt P03018 645-720, looked up)
chain: T1 sequence
notes: UvrD helicase (Helicase II), E. coli, residues 645-720; The His6 tag is called uncleavable; Used [U-15N] labelled in the NMR experiments; source: E. coli BL21(λDE3) pLysS, purified (Ni-NTA, SEC); not shown: His6, N-terminal, kept
B8: biotinylated 35mer dsDNA (dsDNA)
DNA 1: CGAGCACTGCACTCGAGTGCAGTGCTCGTTGTTAT
DNA 2: B8 DNA 1
modifications: biotin (position not given)
B9: 35mer dsDNA (dsDNA)
DNA 1: B8 DNA 1
DNA 2: B8 DNA 1

What was measured:
[1] = target: T2, RNA polymerase core enzyme (subunits α2ββ'ω) (E. coli, UniProt P0A7Z4 1-329; P0A8V2 1-1342; P0A8T7 1-1407; P0A800 1-91); test: BLI; Octet RED96, 303 K; biotinylated ligand on streptavidin biosensors, analyte in a dose series, 0.1% BSA; association and dissociation 1000 s each; which partner was immobilised is not told; conditions: both partners purified
T2 construct: RNA polymerase subunit alpha, E. coli; RNA polymerase subunit beta, E. coli; RNA polymerase subunit beta', E. coli; RNA polymerase subunit omega, E. coli; also called RNAP core-enzyme; source: expressed from plasmid pIA900, purified as by Svetlov and Artsimovitch with an added SEC step (Superose6); copies: 2 + 1 + 1 + 1

[2] = target: T1, UvrD-CTD; test: BLI; NMR titrations at 298 K: UvrD-CTD in UvrD NMR buffer (20 mM K-phosphate, 50 mM KCl, 5 mM DTT, pH 6.5, 10% D2O), Mfd-RID in PBS pH 7.4 with 10% D2O; BLI buffer not given in the material; conditions: protein: recombinant, tags: N-terminal His6, uncleavable, label: biotin
[3] = target: T1, UvrD-CTD; test: NMR titration; up to 2 molar equivalents DNA; NMR titrations at 298 K: UvrD-CTD in UvrD NMR buffer (20 mM K-phosphate, 50 mM KCl, 5 mM DTT, pH 6.5, 10% D2O), Mfd-RID in PBS pH 7.4 with 10% D2O; BLI buffer not given in the material; conditions: protein: recombinant, tags: N-terminal His6, uncleavable
[4] = target: Mfd-RID (Escherichia coli, UniProt P30958 472-547); test: NMR titration; 2 molar equivalents DNA; NMR titrations at 298 K: UvrD-CTD in UvrD NMR buffer (20 mM K-phosphate, 50 mM KCl, 5 mM DTT, pH 6.5, 10% D2O), Mfd-RID in PBS pH 7.4 with 10% D2O; BLI buffer not given in the material; conditions: protein: recombinant; tags: His6-SUMO removed by SenP1; single strand
[5] = self-complementary 28 bp duplex of 2 identical strands, 3' overhangs 7 nt, snap cooled after dissolving

T2 sequence (P0A7Z4 whole entry, chain 1 of 4): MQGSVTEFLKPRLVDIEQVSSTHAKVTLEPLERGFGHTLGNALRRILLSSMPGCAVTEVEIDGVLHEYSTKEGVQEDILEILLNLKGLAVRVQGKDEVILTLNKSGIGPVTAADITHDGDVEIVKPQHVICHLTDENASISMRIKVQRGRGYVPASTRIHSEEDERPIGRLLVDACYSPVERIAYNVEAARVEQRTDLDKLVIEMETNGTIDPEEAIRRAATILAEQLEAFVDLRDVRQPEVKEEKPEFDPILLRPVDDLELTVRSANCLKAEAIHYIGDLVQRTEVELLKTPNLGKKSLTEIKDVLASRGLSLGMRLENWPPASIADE
T2 sequence (P0A8V2 whole entry, chain 2 of 4): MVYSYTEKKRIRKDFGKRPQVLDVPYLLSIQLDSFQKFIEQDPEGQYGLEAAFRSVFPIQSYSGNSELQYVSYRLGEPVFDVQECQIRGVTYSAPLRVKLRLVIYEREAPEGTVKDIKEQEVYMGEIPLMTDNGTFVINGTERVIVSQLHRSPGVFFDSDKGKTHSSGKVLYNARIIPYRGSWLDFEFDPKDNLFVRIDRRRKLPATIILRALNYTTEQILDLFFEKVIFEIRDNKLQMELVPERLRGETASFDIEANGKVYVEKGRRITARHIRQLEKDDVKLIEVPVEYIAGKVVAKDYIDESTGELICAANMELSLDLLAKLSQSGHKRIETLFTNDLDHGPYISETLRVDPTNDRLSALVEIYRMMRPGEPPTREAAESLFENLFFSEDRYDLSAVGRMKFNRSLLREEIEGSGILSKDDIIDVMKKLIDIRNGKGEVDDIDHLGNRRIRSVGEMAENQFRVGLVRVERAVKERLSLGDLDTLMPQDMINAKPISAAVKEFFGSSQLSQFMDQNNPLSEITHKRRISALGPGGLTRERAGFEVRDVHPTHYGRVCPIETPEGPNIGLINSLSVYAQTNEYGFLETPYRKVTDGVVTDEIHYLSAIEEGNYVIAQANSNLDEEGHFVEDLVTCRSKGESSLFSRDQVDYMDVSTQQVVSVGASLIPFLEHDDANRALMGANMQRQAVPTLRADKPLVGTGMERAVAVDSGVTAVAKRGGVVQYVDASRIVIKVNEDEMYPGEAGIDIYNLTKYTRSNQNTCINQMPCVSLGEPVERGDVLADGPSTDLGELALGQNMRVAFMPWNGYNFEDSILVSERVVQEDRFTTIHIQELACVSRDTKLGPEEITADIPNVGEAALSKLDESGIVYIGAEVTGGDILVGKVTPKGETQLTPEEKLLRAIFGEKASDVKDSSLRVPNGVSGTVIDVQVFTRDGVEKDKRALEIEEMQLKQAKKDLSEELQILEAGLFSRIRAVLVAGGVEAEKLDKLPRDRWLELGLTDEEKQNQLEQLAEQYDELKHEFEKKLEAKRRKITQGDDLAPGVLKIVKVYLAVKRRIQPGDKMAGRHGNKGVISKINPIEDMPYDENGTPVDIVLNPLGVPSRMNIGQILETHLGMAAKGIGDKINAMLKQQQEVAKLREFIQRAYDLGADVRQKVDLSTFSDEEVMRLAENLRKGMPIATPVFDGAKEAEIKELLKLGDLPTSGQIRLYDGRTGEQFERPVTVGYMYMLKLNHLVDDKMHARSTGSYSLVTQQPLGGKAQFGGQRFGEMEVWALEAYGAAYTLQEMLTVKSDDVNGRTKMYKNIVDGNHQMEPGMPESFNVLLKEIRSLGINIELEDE
T2 sequence (P0A8T7 whole entry, chain 3 of 4): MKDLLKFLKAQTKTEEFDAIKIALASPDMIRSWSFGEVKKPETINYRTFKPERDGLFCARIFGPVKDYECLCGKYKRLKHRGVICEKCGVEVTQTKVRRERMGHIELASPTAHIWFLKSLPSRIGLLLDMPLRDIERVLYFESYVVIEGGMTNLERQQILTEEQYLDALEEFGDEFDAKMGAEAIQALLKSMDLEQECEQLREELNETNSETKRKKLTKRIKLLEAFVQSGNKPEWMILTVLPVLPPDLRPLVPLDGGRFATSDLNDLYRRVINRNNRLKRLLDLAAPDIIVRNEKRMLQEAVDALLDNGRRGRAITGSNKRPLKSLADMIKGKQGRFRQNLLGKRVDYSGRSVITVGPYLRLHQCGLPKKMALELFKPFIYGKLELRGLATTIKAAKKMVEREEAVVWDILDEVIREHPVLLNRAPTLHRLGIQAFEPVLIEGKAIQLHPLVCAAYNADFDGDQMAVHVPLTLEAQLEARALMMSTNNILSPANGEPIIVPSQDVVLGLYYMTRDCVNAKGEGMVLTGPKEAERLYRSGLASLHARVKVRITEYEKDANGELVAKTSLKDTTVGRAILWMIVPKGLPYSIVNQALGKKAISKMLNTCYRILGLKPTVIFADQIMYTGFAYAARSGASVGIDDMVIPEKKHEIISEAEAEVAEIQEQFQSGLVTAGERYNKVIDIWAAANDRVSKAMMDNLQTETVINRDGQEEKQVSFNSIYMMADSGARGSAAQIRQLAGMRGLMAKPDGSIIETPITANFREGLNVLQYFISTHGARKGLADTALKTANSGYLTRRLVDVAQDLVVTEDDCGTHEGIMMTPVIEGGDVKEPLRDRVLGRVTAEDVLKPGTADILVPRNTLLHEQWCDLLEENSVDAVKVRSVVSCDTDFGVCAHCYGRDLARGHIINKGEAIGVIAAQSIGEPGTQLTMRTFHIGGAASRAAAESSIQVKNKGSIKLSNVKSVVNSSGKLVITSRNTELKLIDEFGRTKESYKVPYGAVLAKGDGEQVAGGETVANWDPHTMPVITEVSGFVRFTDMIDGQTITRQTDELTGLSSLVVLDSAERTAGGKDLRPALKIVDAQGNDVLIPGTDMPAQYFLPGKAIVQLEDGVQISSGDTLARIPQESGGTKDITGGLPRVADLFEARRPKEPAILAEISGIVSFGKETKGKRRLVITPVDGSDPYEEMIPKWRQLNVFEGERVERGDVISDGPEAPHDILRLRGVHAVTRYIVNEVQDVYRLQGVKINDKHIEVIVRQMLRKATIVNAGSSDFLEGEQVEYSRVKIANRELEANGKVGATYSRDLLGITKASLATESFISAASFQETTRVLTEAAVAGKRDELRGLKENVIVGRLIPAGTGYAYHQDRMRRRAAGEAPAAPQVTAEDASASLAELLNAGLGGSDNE
T2 sequence (P0A800 whole entry, chain 4 of 4): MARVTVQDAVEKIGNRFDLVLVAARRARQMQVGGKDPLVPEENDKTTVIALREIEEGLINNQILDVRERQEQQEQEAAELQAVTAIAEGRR

Row | Binder | Kd [1] [nM] | further results
1 | B1 | 1900 ± 150 | 
2 | B2 | 250 ± 52 | 
3 | B3 |  | Kd ([2]; single strand): 3800 ± 470 nM
4 | B4 |  | binding result ([3]; single strand): binds; binding result [4]: no binding
5 | B5 | 1000 ± 130 | 
6 | B6 | 310 ± 14 | 
7 | B7 | 77 ± 0.3 | 
8 | B8 |  | Kd [2, 5]: 1900 ± 170 nM
9 | B9 |  | binding result [3, 5]: binds
